Experiment [1] concerns the target T1, His-tagged 5T4 protein of human (h5T4, ACRO Biosystems Inc., Cat #: TPG-H52E5) (human, UniProt Q13641 32-355).
T1 construct: Bought protein; not shown: His tag
T1 sequence (looked up): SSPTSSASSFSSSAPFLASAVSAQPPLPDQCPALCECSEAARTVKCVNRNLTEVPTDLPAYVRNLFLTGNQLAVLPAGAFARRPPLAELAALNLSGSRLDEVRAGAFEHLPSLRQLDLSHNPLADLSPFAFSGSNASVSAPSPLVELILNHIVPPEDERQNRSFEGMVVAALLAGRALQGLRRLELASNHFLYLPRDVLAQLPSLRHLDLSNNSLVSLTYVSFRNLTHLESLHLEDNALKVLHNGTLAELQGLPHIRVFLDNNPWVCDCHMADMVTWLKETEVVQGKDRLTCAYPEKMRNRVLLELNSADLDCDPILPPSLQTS
Put plainly: SPR (Biacore 8K), antibody captured on Protein A chip, His-tagged 5T4 as analyte. The protocol:
(§1) Purified anti-5T4 antibodies were diluted to 2 μg/mL and then injected into the Biacore™ 8K biosensor at 10 μL/min for about 50 seconds to achieve a desired protein density (e.g., about 50 response units (RU)). His-tagged 5T4 protein at a concentration of 200 nM was then injected at 30 μL/min for 180 seconds. Dissociation was monitored for 400 seconds. The chip was regenerated after the last injection of each titration with Glycine (pH 2.0), 30 μL/min for 30 seconds. For ISO control, an antibody targeting an irrelevant target protein was used.
(§2) As a person of ordinary skill in the art would understand, the same method with appropriate adjustments for parameters (e.g., antibody concentration) was performed for each tested antibody.
A general note: SPR reads the build-up and loss of mass on a sensor chip optically.

In experiment [2] the target is T2, His-tagged 5T4 protein of mouse (m5T4, ACRO Biosystems Inc., Cat #: TPG-M52H3) (mouse, UniProt Q9Z0L0 32-361, limits assumed).
T2 construct: Bought protein; not shown: His tag
T2 sequence (looked up): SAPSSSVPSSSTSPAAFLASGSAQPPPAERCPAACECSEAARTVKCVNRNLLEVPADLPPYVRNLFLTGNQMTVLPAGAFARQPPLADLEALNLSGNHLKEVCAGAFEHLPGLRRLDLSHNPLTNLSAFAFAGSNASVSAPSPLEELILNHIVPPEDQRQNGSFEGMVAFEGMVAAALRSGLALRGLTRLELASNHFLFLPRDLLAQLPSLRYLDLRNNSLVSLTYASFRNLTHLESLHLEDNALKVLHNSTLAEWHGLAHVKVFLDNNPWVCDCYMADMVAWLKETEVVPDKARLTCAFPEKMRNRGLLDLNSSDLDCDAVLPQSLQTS
The experiment is described as above. The protocol: as §1, §2

The target in experiment [3] is T3, His-tagged 5T4 protein of monkey (fas5T4, ACRO Biosystems Inc., Cat #: TPG-C52H3) (monkey, UniProt Q4R8Y9 35-355).
T3 construct: Bought protein
T3 sequence: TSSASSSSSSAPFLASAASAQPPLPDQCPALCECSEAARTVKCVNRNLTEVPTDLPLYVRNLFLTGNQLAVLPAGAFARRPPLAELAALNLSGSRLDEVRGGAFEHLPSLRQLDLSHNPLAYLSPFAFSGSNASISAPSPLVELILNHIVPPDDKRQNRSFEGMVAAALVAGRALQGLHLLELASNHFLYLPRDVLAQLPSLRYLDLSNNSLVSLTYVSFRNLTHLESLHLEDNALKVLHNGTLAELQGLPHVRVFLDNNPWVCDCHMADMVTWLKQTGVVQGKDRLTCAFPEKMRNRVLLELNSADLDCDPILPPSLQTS
Described as above. The protocol:
as §1, §2

The target in experiment [4] is T4, h5T4-His protein (human, UniProt Q13641 32-355, limits assumed).
T4 construct: also called His-tagged human 5T4 protein; not shown: His tag
T4 sequence (looked up): T1 sequence (looked up)
Put plainly: epitope binding assay, h5T4-His captured; binder = analyte 2; competitor (analyte 1): 35C6. The protocol: (§3) Epitope binding assays were performed using ForteBio Octet system to determine whether two anti-5T4 antibodies target the same or overlapping epitopes. 1×HBS-EP+buffer (10 mM 4-(2-hydroxyethyl)-1-piperazineethanesulfonic acid (HEPES), 150 mM NaCl, 3 mM ethylenediaminetetraacetic acid (EDTA) and 0.05% P20, pH7.4) diluted from HBS-EP+buffer (10×) was used as the running buffer throughout the experiment. About 50 RU of h5T4-His protein was captured at a flow rate of 10 μL/min, and 200 nM of the tested antibody was injected at a flow rate of 30 μL/min to bind the ligand. Another comparison antibody was injected under the same conditions to determine whether the binding of different antibodies interfered with each other. The binding time was 180 s for each antibody.
(§4) The binding value of each antibody was obtained using Data Analysis HT 12.0. To quantify the interference of one antibody binding to another, a binding ratio was calculated to compare each pair of antibodies. The binding ratio is defined as the binding value of the second antibody (analyte 2), divided by the binding value of the first antibody (analyte 1). […] In general, antibody pairs that interfere with each other have the same or overlapping epitopes.

Experiment [5] concerns the target T4, h5T4-His protein. Description: epitope binding assay, h5T4-His captured; binder = analyte 2; competitor (analyte 1): 32G1. The protocol: as §3, §4
Experiment [6] has as its target T4, h5T4-His protein. Put plainly: epitope binding assay, h5T4-His captured; binder = analyte 2; competitor (analyte 1): 31G4. The protocol:
as §3, §4

The target of experiment [7] is T5, dog 5T4 expressed on CHO-S cells (CHO-d5T4 cells) (dog).
T5 chain: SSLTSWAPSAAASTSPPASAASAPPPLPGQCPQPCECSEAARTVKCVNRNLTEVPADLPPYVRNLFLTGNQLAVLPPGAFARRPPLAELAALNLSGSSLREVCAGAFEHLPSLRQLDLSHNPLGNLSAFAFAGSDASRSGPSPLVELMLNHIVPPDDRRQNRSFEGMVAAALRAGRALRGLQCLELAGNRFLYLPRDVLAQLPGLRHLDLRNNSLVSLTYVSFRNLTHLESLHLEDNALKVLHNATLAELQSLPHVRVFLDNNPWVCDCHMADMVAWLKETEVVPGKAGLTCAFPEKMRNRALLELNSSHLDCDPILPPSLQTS
Description: flow cytometry, CHO-d5T4 cells. The protocol: (§5) CHO-h5T4 cells, CHO-m5T4 cells, CHO-fas5T4 cells or CHO-d5T4 cells were transferred to a 96-well plate at a density of 2×10⁵ cells/well respectively. The anti-5T4 antibodies were added to the 96-well plate, and incubated at 4° C. for 30 min. Then, the cells were incubated with the secondary antibody anti-hlgG-Fc-Alex Flour 647 (RL1-H) (Jackson ImmunoResearch Laboratories, Inc., Cat #: 109-606-170) at 4° C. in the dark for 15 minutes before flow cytometry analysis.
(In general: Flow cytometry measures light scatter and fluorescence of single cells or particles in a stream.)

In experiment [8] the target is T4, h5T4-His protein. Description: epitope binding assay, h5T4-His captured; binder = analyte 2; competitor (analyte 1): 35B12. The protocol: as §3, §4
For experiment [9], the target named is T4, h5T4-His protein. Put plainly: epitope binding assay, h5T4-His captured; binder = analyte 2; competitor (analyte 1): 32G8. The protocol:
as §3, §4

In experiment [10] the target is T6, human 5T4 expressed on CHO-S cells (CHO-h5T4 cells) (human, UniProt Q13641 32-355).
T6 sequence: T1 sequence (looked up)
Put plainly: flow cytometry, CHO-h5T4 cells. The protocol:
as §5

Experiment [11] addresses T7, mouse 5T4 expressed on CHO-S cells (CHO-m5T4 cells) (mouse, UniProt Q9Z0L0 32-361).
T7 sequence: T2 sequence (looked up)
Description: flow cytometry, CHO-m5T4 cells. The protocol: as §5

Experiment [12] concerns the target T4, h5T4-His protein. Put plainly: epitope binding assay, h5T4-His captured; binder = analyte 2; competitor (analyte 1): 32E3. The protocol: as §3, §4
For experiment [13], the target named is T8, monkey (Macaca fascicularis) 5T4 expressed on CHO-S cells (CHO-fas5T4 cells) (monkey (Macaca fascicularis), UniProt Q4R8Y9 35-355).
T8 construct: also called monkey 5T4
T8 sequence: T3 sequence
Put plainly: flow cytometry, CHO-fas5T4 cells. The protocol:
as §5

B1: MAB2 analog-SI (antibody, V domains shown)
VH: QVQLQQPGAELVKPGASVKMSCKASGYTFTSYWITWVKQRPGQGLEWIGDIYPGSGRANYNEKFKSKATLTVDTSSSTAYMQLSSLTSEDSAVYNCARYGPLFTTVVDPNSYAMDYWGQGTSVTVSS
VL: DVLMTQTPLSLPVSLGDQASISCRSSQSIVYSNGNTYLEWYLQKPGQSPKLLIYKVSNRFSGVPDRFSGSGSGTDFTLKISRVEAEDLGVYYCFQGSHVPFTFGSGTKLEIK
notes: MAB2 is a humanized IgG1 monoclonal antibody targeting 5T4
One may read the Kd as the equilibrium constant for the complex coming apart. The koff is the first-order rate constant of dissociation. As a reminder, the kon is the rate constant with which the complex forms. In experiment [1], B1 registered a Kd of 22.5 nM, a koff of 0.00292 s⁻¹ and a kon of 130000 M⁻¹ s⁻¹. Also, in [2], the binding result is on record as “no binding (tested: 200 nM)”. In experiment [3], this molecule registered a Kd of 55.1 nM, a koff of 0.00545 s⁻¹ and a kon of 99000 M⁻¹ s⁻¹.

B2: 32E3 (antibody, V domains shown)
VH: QVQLVQSGGGLVQPGGSLRLSCVVSGFTVSSDYMSWVRQAPGKGLEWVSIIYSGGSTFYADSVKGRFTISRDNSKNTLFLQMNSLRAEDTAVYYCARDRDCHGWGSYYNRWFDPWGQGTLVTVSS
VL: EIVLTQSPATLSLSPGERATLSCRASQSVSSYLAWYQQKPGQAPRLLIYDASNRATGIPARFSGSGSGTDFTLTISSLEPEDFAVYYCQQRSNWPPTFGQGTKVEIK
notes: also called anti-5T4 antibody 32E3
Regarding B2, the values for the Kd in experiment [1] and in experiment [3] were 147 nM and 116 nM, respectively. The koff in [1] came to 0.00661 s⁻¹; in [3] it was 0.00297 s⁻¹. In addition, the kon in experiment [1] turned out to be 44900 M⁻¹ s⁻¹; in experiment [3] it was 25600 M⁻¹ s⁻¹. The binding ratio in the experiment with h5T4-His protein [4] is 0.96; with h5T4-His protein [5] it was 0.83; in the experiment with h5T4-His protein [6] it was 0.8; with h5T4-His protein [8] it was 0.97; in the experiment with h5T4-His protein [9], -0.06; with h5T4-His protein [12], -0.01. The “Percentage of Positive Cells” value in experiment [7] was 53.7%; in [10], 65.8%; in [11], 52.2%; in experiment [13] it was 51.5%.

B3: 31G4 (antibody, V domains shown)
VH: QVQLVQSGGGLVQPGGSLRLSCAASGFTFKSYWMHWVRQAPGKGLEWVSRINFDGSSITYADSVKGRFTISRDNAKNTLYLQMNSLSAEDTAVYYCARPLTYYEILTGFSQYFDFWGQGTLVTVSS
VL: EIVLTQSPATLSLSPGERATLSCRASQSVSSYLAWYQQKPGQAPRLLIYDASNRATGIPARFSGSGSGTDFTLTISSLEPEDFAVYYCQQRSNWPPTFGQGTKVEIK
notes: also called anti-5T4 antibody 31G4
Take B3: the Kd stood at 2.68 nM in experiment [1] and 10.1 nM in [3]. For the same molecule, the koff in experiment [1] is 0.000397 s⁻¹; in experiment [3] it was 0.00101 s⁻¹. Moreover, the kon in [1] was 148000 M⁻¹ s⁻¹; in [3], 100000 M⁻¹ s⁻¹. For the same molecule, the binding result is “no binding (tested: 200 nM)” in experiment [2], “no binding” in [7] and “no binding” in experiment [11]. Besides, the binding ratio came out at 1.05 with h5T4-His protein [4]; 1.04 in the experiment with h5T4-His protein [5]; 0.04 with h5T4-His protein [6]; 1.01 with h5T4-His protein [8]; 1.01 with h5T4-His protein [9]; 1.01 with h5T4-His protein [12]. Further, the “Percentage of Positive Cells” value in experiment [7] stood at 1.1%; in [10], 79.3%; in [11] it was 1.4%; in [13], 58.8%.

B4: 35C6 (antibody, V domains shown)
VH: QVQLVQSGGGLVQPGGSLRLSCAASGFTFSRNAMSWVRQAPGKGLEWVSAISGSGGSTHDADSVKGRFTISRDNSKNTLYLEMNSLRAEDTAVYYCAKDGYSSLWDYHYYGMDVWGQGTTVTVSS
VL: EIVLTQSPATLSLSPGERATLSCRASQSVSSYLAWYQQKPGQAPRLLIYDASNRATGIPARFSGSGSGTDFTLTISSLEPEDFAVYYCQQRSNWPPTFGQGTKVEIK
notes: also called anti-5T4 antibody 35C6
In the case of B4, the Kd stood at 19.2 nM in experiment [1] and 1.31 nM in experiment [2]. The results for the koff in [1] and in [2] were 0.00315 s⁻¹ and 0.000407 s⁻¹, respectively. Also, the kon in [1] is 164000 M⁻¹ s⁻¹; in experiment [2], 310000 M⁻¹ s⁻¹. Moreover, the binding ratio in the experiment with h5T4-His protein [4] amounted to 0.02; in the experiment with h5T4-His protein [5], 0.96; with h5T4-His protein [6] it was 0.81; with h5T4-His protein [8], 0.03; in the experiment with h5T4-His protein [9], 0.98; with h5T4-His protein [12], 0.93. Also, the “Percentage of Positive Cells” value in experiment [7] was 71.1%; in experiment [10] it was 67.3%; in experiment [11], 63.3%; in experiment [13], 55.7%.

The record behind these values is patent publication US20260241018A1 (BIOCYTOGEN PHARMACEUTICALS BEIJING, published 2026).
